Measurements from US5847088A, “Antibodies specific for platelet-activating factor acetylhydrolase” (ICOS Corporation, priority 1995, dated 1998).

Key:
[1] = assay type: biochemical
Excerpt: The most remarkable property of the PAF acetylhydrolase is its marked specificity for substrates with a short residue at the sn-2 position of the substrate. This strict specificity distinguishes PAF acetylhydrolase from other forms of PLA2. […] Native plasma PAF-AH has several other properties that distinguish it from other phospholipases including calcium-independence and resistance to compounds that modify sulfhydryl groups or disrupt disulfides.

[2] = system: antigen-induced eosinophil recruitment; assay: Antigen-induced eosinophil recruitment to trachea of OVA-sensitized mice; assay type: in vivo, mouse; conditions: 750 units IV 30 minutes before and 24 hours after aerosolized OVA; 48 hours
Description: The accumulation of eosinophils in the airway is a characteristic feature of late phase immune responses which occur in asthma, rhinitis and eczema. BALB/c mice (Charles River) were sensitized by two intraperitoneal injections consisting of 1 μg of ovalbumin (OVA) in 4 mg of aluminum hydroxide (Imject alum, Pierce Laboratories, Rockford, Ill.) given at a 2 week interval. Fourteen days following the second immunization, the sensitized mice were challenged with either aerosolized OVA or saline as a control.
Prior to challenge mice were randomly placed into four groups, with four mice/group. Mice in groups 1 and 3 were pretreated with 140 μl of control buffer consisting of 25 mM tris, 0.5M NaCl, 1 mM EDTA and 0.1% Tween 80 given by intravenous injection. Mice in groups 2 and 4 were pretreated with 750 units of PAF-AH (activity of 5,500 units/ml given in 140 μl of PAF-AH buffer). Thirty minutes following administration of PAF-AH or buffer, mice in groups 1 and 2 were exposed to aerosolized PBS as described below, while mice in groups 3 and 4 were exposed to aerosolized OVA. Twenty-four hours later mice were treated a second time with either 140 μl of buffer (groups 1 and 3) or 750 units of PAF-AH in 140 μl of buffer (groups 2 and 4) given by intravenous injection.
Eosinophil infiltration of the trachea was induced in the sensitized mice by exposing the animals to aerosolized OVA. […]

[3] = system: PAF-induced pleurisy; assay: PAF-induced pleurisy (Evans blue vascular leakage); assay type: in vivo, rat; conditions: 300 μl PAF-AH (1500 μmol/ml/hour) IV 15 minutes before 2.0 nmol PAF, 1 hour
Description: Fifteen minutes later the rats received an 100 μl injection of PAF (2.0 nmol) into the pleural space. One hour following PAF challenge, rats were sacrificed and the pleural fluid was collected by rinsing the cavity with 3 ml heparinized phosphate buffered saline. The degree of vascular leak was determined by the quantity of Evans blue dye in the pleural space which was quantitated by absorbance at 620 nm.

[4] = system: PAF mediated lung injury; assay: Guinea pig model of ARDS (PAF infusion, BAL protein); assay type: in vivo
Description: Based on the above observations, an ARDS model in guinea pigs was developed. A cannula is placed into the jugular vein of anaesthetized male Hartly guinea pigs (approximately 350-400 grams) and PAF diluted in a 500 μl volume of phosphate buffered saline with 0.25% bovine serum albumin as a carrier (PBS-BSA) is infused over a 15 minute period of time at a total dosage ranging from 100-400 ng/kg. At various intervals following PAF infusion, animals are sacrificed and lung tissue is collected. In guinea pigs infused with PAF, dose dependent lung damage and inflammation is clearly evident by 15 minutes and continues to be present at 60 minutes. Neutrophils and red blood cells are present in the alveolar spaces of PAF treated guinea pigs but absent in control or sham infused animals. Evidence of epithelial cell damage is also evident and reminiscent of hyaline membrane formation in human ARDS patients.
Groups of guinea pigs were pretreated with either PAF-AH (2000 units in 500 μl) or 500 μl of the PAF-AH buffer only. Fifteen minutes later these guinea pigs were infused with 400 ng/kg PAF in a 500 μl volume, infused over a 15 minute period. In addition, a sham group of guinea pigs was infused with 500 μl of PBS-BSA. […] To determine protein concentration in the BAL, samples were diluted 1:10 in saline and the OD 280 was determined.

B1: PAF-AH: Recombinant human plasma platelet-activating factor acetylhydrolase (beginning at Ile42 of SEQ ID NO:8) expressed in E. coli (protein, UniProt Q13093 22-441, looked up)
Platelet-activating factor …: FDWQYINPVAHMKSSAWVNKIQVLMAAASFGQTKIPRGNGPYSVGCTDLMFDHTNKGTFLRLYYPSQDNDRLDTLWIPNKEYFWGLSKFLGTHWLMGNILRLLFGSMTTPANWNSPLRPGEKYPLVVFSHGLGAFRTLYSAIGIDLASHGFIVAAVEHRDRSASATYYFKDQSAAEIGDKSWLYLRTLKQEEETHIRNEQVRQRAKECSQALSLILDIDHGKPVKNALDLKFDMEQLKDSIDREKIAVIGHSFGGATVIQTLSEDQRFRCGIALDAWMFPLGDEVYSRIPQPLFFINSEYFQYPANIIKMKKCYSPDKERKMITIRGSVHQNFADFTFATGKIIGHMLKLKGDIDSNVAIDLSNKASLAFLQKHLGLHKDFDQWDCLIEGDDENLIPGTNINTTNQHIMLQNSSGIEKYN
degradation of glutaroylPC (oxidized phospholipid) [1]: rapidly degraded | eosinophils in submucosal tissue of trachea [2]: very few eosinophils in the submucosal tissue | reduction in inflammation (vascular leakage, Evans blue in pleural space) [3]: > 80% | BAL fluid protein concentration ([4]; 2000 units 15 minutes before 400 ng/kg PAF infusion): 1.13 ± 0.25 mg/mL | protection against PAF mediated lung injury ([4]; 2000 units pretreatment): completely protect
